doi:10.1101/2025.06.24.661301
Read-outs that look alike come from different tables or passages of the source.

Legend:
Arp2/3 complex (human) [1] = target: Arp2/3 complex (human) (UniProt P61158); assay: SPR
Arp2/3 complex (human) [2] = target: Arp2/3 complex (human) (UniProt P61158); assay: SPR; remark: listed apart in the source

Row | Kd (Arp2/3 complex (human) [1]) [µM] | Kd (Arp2/3 complex (human) [2]) [µM] | Substance
1 | 17.8 | – | Arpin CT peptide (residues 192-226) (from UniProt Q7Z6K5-1 192-226)
2 | 2.5 | – | GST-aCT (chimeric protein with Arpin's CT fused to the C-terminus of glutathione S-transferase through the spacer -GSSG-)
3 | 14.1 | 48.9 | full-length Arpin (SEC fractions used in SPR) (from UniProt Q7Z6K5-1 1-226) (natural protein)
4 | 63.1 | – | human Arpin with the double-site alanine substitution F95A/M97A (from UniProt Q7Z6K5-1 1-226) (natural protein)
